Data published in PMC11965310, “Inhibition of tau neuronal internalization using anti-tau single domain antibodies” (Nature Communications, 2025).
Each block holds one binder with its values, some of them ahead of it.

Columns and labels:
Details in all cases: both partners purified
[1] = biological target: T1, tauMTBD (Homo sapiens, UniProt P10636, biotin (NHS-biotin, ratio 1:0.5) when immobilised in SPR; Atto488 NHS ester in the uptake assay); assay: SPR; biotinylated tau2N4R, tau1N4R or tauMTBD captured on a streptavidin (SA) chip; VHHs without tag as analytes, 0.0625-4 μM, single-cycle kinetics; 25 °C, HBS EP+; 1:1 Langmuir model
T1 construct: also called tauMTBD fragment; source: E. coli BL21 (DE3), purified (heating at 75 °C, cation exchange)
T1 sequence (P10636 whole entry, looked up, the tested form may be a part): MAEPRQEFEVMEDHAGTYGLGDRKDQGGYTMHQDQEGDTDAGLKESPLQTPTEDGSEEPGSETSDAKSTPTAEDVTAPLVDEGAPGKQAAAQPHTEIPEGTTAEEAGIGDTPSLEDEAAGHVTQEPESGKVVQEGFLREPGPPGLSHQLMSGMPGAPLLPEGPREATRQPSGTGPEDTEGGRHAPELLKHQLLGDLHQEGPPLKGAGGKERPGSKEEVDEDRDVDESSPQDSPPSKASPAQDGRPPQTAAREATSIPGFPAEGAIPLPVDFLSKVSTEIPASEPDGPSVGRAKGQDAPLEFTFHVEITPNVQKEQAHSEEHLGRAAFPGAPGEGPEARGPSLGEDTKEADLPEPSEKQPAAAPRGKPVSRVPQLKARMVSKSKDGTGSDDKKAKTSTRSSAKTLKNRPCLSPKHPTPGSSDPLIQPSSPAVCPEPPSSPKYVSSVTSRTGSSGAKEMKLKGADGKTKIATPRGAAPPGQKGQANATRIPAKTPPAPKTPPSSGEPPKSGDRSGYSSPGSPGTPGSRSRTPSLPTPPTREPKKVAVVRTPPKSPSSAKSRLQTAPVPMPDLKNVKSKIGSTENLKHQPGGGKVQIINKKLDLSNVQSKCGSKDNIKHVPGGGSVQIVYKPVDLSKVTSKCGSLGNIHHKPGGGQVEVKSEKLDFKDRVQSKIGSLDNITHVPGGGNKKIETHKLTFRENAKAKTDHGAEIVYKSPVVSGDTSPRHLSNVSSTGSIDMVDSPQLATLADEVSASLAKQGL

[2] = biological target: T2, tau2N4R (Homo sapiens, UniProt P10636-8, biotin (NHS-biotin, 3 molar excess) when immobilised in SPR; 15N-labelled in NMR); assay: as above
T2 construct: tau protein, isoform 2N4R, the largest tau isoform; Expressed from pET15b-tau2N4R; also called full-length tau2N4R; largest tau isoform; source: E. coli BL21 (DE3), purified (heating at 75 °C, cation exchange)
T2 sequence (P10636 other isoform, or with tags, fused parts or gaps): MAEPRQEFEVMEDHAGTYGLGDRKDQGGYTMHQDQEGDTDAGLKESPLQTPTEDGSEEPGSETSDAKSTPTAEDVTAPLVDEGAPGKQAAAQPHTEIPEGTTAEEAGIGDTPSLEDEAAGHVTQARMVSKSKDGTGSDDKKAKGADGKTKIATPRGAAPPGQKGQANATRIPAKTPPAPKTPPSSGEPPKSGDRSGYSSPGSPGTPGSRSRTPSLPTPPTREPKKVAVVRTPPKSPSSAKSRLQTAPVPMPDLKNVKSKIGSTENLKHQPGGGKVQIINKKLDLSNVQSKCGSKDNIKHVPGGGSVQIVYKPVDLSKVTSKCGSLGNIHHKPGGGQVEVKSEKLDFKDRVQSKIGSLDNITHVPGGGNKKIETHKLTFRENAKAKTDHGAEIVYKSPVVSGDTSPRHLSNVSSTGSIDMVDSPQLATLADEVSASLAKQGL

[3] = biological target: T3, tau1N4R (Homo sapiens, UniProt P10636-7, biotin (NHS-biotin, 3 molar excess) when immobilised in SPR; Alexa Fluor 546 C5-maleimide on its two native cysteine residues in the uptake assay); assay: as above
T3 construct: tau protein, isoform 1N4R; Used without a stated label as analyte on LRP1 cluster III; also called full-length tau1N4R; monomeric tau1N4R; source: E. coli BL21 (DE3), purified (heating at 75 °C, cation exchange)
T3 sequence (P10636 other isoform, or with tags, fused parts or gaps): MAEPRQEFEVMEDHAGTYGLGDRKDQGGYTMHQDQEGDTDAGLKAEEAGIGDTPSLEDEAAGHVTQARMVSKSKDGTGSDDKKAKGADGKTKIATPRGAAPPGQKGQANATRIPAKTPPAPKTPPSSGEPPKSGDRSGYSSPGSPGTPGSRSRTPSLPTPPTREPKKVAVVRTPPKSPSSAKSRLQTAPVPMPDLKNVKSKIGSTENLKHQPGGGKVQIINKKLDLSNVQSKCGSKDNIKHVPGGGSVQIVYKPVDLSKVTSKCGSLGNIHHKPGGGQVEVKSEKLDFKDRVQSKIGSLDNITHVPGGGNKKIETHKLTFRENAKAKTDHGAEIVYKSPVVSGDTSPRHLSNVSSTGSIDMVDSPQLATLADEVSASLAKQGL

[4] = biological target: T4, tau[369–381] C-terminal peptide (Homo sapiens); assay: SPR; biotinylated VHH-Cys captured on SA chip; tau[369-381] peptide as analyte, multi-cycle kinetics; 25 °C, HBS EP+; kinetic analysis, 1:1 Langmuir model
T4 construct: also called tau-C-ter peptide; tau-Cter peptide
T4 chain: KKIETHKLTFREN

[5] = biological target: T4, tau[369–381] C-terminal peptide; assay: SPR; same data as the multi-cycle kinetics; steady-state analysis of maximum responses, one-site specific binding model
[6] = biological target: T4, tau[369–381] C-terminal peptide; assay: as above
[7] = biological target: T4, tau[369–381] C-terminal peptide; assay: SPR; biotinylated VHH-Cys captured on SA chip; tau[369-381] peptide as analyte, multi-cycle kinetics; 25 °C, HBS EP+; kinetic analysis, 1:1 Langmuir model
[8] = biological target: T4, tau[369–381] C-terminal peptide; assay: AlphaScreen or HTRF; 6His-VHH bound by anti-6His antibody-Terbium (1.5 nM) and 6His-VHH bound by anti-6His antibody-D2 (20 nM); tau-Cter peptide 32 nM to 100 µM; 1 h at room temperature

B2: biotinylated VHH E2-2 with a cysteine at the C-terminus (VHH)
VHH: EVQLQASGGGFVQPGGSLRLSCAASGSTYDFDAMGWFRQAPGKEREFVSAISGDADLARYYADSVKGRFTISRDNSKNTVYLQMNSLRAEDTATYYCAAFRHEVHGSMRHEWEVIKYWGQGTQVTVSS
notes: as the VHH chain of m11; additional C-terminal cysteine; source: E. coli periplasm, purified (IMAC, SEC, TEV cleavage, second IMAC); not shown: His6, N-terminal, cleaved
Kd [4]: 820 nM
koff [4]: 0.124 s⁻¹
kon [4]: 154000 M⁻¹ s⁻¹
Kd [5]: 518 to 820 nM
Kd [6]: 578 nM
stoichiometry N [6]: 0.45

B3: VHH F8-2 (VHH)
VHH: EVQLQASGGGFVQPGGSLRLSCAASGGTSYWDGMGWFRQAPGKEREFVSAISGRGNIGTYYADSVKGRFTISRDNSKNTVYLQMNSLRAEDTATYYCAAFRHEVHGSMRHEWEVIKYWGQGTQVTVSS
notes: source: E. coli periplasm, purified (IMAC, SEC, TEV cleavage, second IMAC); not shown: His6, N-terminal, cleaved
Kd [2]: 753 nM
koff [2]: 0.04 s⁻¹
kon [2]: 53100 M⁻¹ s⁻¹
Kd [3]: 740 nM
koff [3]: 0.0425 s⁻¹
kon [3]: 57500 M⁻¹ s⁻¹

B6: 6His-VHH H3-2 (VHH)
VHH: EVQLQASGGGFVQPGGSLRLSCAASGYTSGDEIMGWFRQAPGKEREFVSAISWQSGTSTYYADSVKGRFTISRDNSKNTVYLQMNSLRAEDTATYYCAPMTLAETYYEWLISGYWGQGTQVTVSS
notes: as the VHH chain of m8; The construct has a TEV site between the 6-His tag and the VHH; also called 6Histag-H3-2; source: E. coli periplasm, purified; not shown: His6, N-terminal, kept
EC50 [8]: 2700 nM

Other lines, results leading:

binding result [1]: no binding (tested: 4 μM)
Kd [2]: 84 nM
koff [2]: 0.0038 s⁻¹
kon [2]: 44900 M⁻¹ s⁻¹
Kd [3]: 96 nM
koff [3]: 0.0045 s⁻¹
kon [3]: 46700 M⁻¹ s⁻¹
B1: VHH E2-2 (VHH)
VHH: B2 VHH
notes: From the Nali-H1 VHH library; source: E. coli periplasm, purified (IMAC, SEC, TEV cleavage, second IMAC); not shown: His6, N-terminal, cleaved

binding result [1]: no binding (tested: 4 μM)
Kd [2]: 8.9 nM
koff [2]: 0.0056 s⁻¹
kon [2]: 630000 M⁻¹ s⁻¹
Kd [3]: 11 nM
koff [3]: 0.006 s⁻¹
kon [3]: 554000 M⁻¹ s⁻¹
B4: VHH H3-2 (VHH)
VHH: B6 VHH
notes: From the Nali-H1 VHH library; Forms a swapped dimer in the crystal and mostly a dimer in SEC at 20 µM; Coupled to 10 nm gold beads for electron microscopy; source: E. coli periplasm, purified (IMAC, SEC, TEV cleavage, second IMAC); not shown: His6, N-terminal, cleaved

Kd [4]: 280 nM
koff [4]: 0.071 s⁻¹
kon [4]: 192000 M⁻¹ s⁻¹
Kd [6]: 297 nM
stoichiometry N [6]: 0.41
Kd [7]: 297 to 380 nM
B5: biotinylated VHH H3-2 with a cysteine at the C-terminus (VHH)
VHH: B6 VHH
notes: as the VHH chain of m8; additional C-terminal cysteine; source: E. coli periplasm, purified (IMAC, SEC, TEV cleavage, second IMAC); not shown: His6, N-terminal, cleaved
